± gives the uncertainty stated by the source.
B1: Retinoic acid receptor RXR-alpha, residues 132 to 208; numbered along this chain, P19793 (parent)
chain: KHICAICGDRSSGKHYGVYSCEGCKGFFKRTVRKDLTYTCRDNKDCLIDKRQRNRCQYCRYQKCLAMGMKREAVQEE

Variants of: B1
Experiment: abundance fitness (aPCA) (normalised: wild type 0, dead -1); higher = more abundant; growth selection in yeast, the domain comes from the species named
Conditions: Homo sapiens

Variant	abundance fitness
KHICAIGGDRSSGKHYGVYSCEGCKGFFKRTVRKDLTYTCRDNKDCLIDKRQRNRCQYCRYQKCLAMGMKREAVQEE	-0.921 ± 0.1
KHICAIHGDRSSGKHYGVYSCEGCKGFFKRTVRKDLTYTCRDNKDCLIDKRQRNRCQYCRYQKCLAMGMKREAVQEE	-0.942 ± 0.1
KHICAIIGDRSSGKHYGVYSCEGCKGFFKRTVRKDLTYTCRDNKDCLIDKRQRNRCQYCRYQKCLAMGMKREAVQEE	-1.24 ± 0.16
KHICAIKGDRSSGKHYGVYSCEGCKGFFKRTVRKDLTYTCRDNKDCLIDKRQRNRCQYCRYQKCLAMGMKREAVQEE	-1.29 ± 0.22
KHICAILGDRSSGKHYGVYSCEGCKGFFKRTVRKDLTYTCRDNKDCLIDKRQRNRCQYCRYQKCLAMGMKREAVQEE	-1.23 ± 0.12
KHICAIMGDRSSGKHYGVYSCEGCKGFFKRTVRKDLTYTCRDNKDCLIDKRQRNRCQYCRYQKCLAMGMKREAVQEE	-0.867 ± 0.14
KHICAINGDRSSGKHYGVYSCEGCKGFFKRTVRKDLTYTCRDNKDCLIDKRQRNRCQYCRYQKCLAMGMKREAVQEE	-0.728 ± 0.07
KHICAIPGDRSSGKHYGVYSCEGCKGFFKRTVRKDLTYTCRDNKDCLIDKRQRNRCQYCRYQKCLAMGMKREAVQEE	-0.961 ± 0.093
KHICAIQGDRSSGKHYGVYSCEGCKGFFKRTVRKDLTYTCRDNKDCLIDKRQRNRCQYCRYQKCLAMGMKREAVQEE	-0.988 ± 0.15
KHICAISGDRSSGKHYGVYSCEGCKGFFKRTVRKDLTYTCRDNKDCLIDKRQRNRCQYCRYQKCLAMGMKREAVQEE	-0.944 ± 0.067
KHICAITGDRSSGKHYGVYSCEGCKGFFKRTVRKDLTYTCRDNKDCLIDKRQRNRCQYCRYQKCLAMGMKREAVQEE	-0.981 ± 0.083
KHICAIVGDRSSGKHYGVYSCEGCKGFFKRTVRKDLTYTCRDNKDCLIDKRQRNRCQYCRYQKCLAMGMKREAVQEE	-1.11 ± 0.14
KHICAIWGDRSSGKHYGVYSCEGCKGFFKRTVRKDLTYTCRDNKDCLIDKRQRNRCQYCRYQKCLAMGMKREAVQEE	-1.22 ± 0.23
KHICAIYGDRSSGKHYGVYSCEGCKGFFKRTVRKDLTYTCRDNKDCLIDKRQRNRCQYCRYQKCLAMGMKREAVQEE	-0.917 ± 0.08
KHICAICADRSSGKHYGVYSCEGCKGFFKRTVRKDLTYTCRDNKDCLIDKRQRNRCQYCRYQKCLAMGMKREAVQEE	-0.027 ± 0.037
KHICAICCDRSSGKHYGVYSCEGCKGFFKRTVRKDLTYTCRDNKDCLIDKRQRNRCQYCRYQKCLAMGMKREAVQEE	-0.027 ± 0.045
KHICAICDDRSSGKHYGVYSCEGCKGFFKRTVRKDLTYTCRDNKDCLIDKRQRNRCQYCRYQKCLAMGMKREAVQEE	-0.04 ± 0.039
KHICAICEDRSSGKHYGVYSCEGCKGFFKRTVRKDLTYTCRDNKDCLIDKRQRNRCQYCRYQKCLAMGMKREAVQEE	0.005 ± 0.069
KHICAICFDRSSGKHYGVYSCEGCKGFFKRTVRKDLTYTCRDNKDCLIDKRQRNRCQYCRYQKCLAMGMKREAVQEE	0.006 ± 0.036
KHICAICHDRSSGKHYGVYSCEGCKGFFKRTVRKDLTYTCRDNKDCLIDKRQRNRCQYCRYQKCLAMGMKREAVQEE	-0.062 ± 0.037
KHICAICKDRSSGKHYGVYSCEGCKGFFKRTVRKDLTYTCRDNKDCLIDKRQRNRCQYCRYQKCLAMGMKREAVQEE	-0.053 ± 0.05
KHICAICLDRSSGKHYGVYSCEGCKGFFKRTVRKDLTYTCRDNKDCLIDKRQRNRCQYCRYQKCLAMGMKREAVQEE	-0.179 ± 0.03
KHICAICMDRSSGKHYGVYSCEGCKGFFKRTVRKDLTYTCRDNKDCLIDKRQRNRCQYCRYQKCLAMGMKREAVQEE	-0.07 ± 0.041
KHICAICNDRSSGKHYGVYSCEGCKGFFKRTVRKDLTYTCRDNKDCLIDKRQRNRCQYCRYQKCLAMGMKREAVQEE	-0.017 ± 0.035

Variant	abundance fitness
KHICAICPDRSSGKHYGVYSCEGCKGFFKRTVRKDLTYTCRDNKDCLIDKRQRNRCQYCRYQKCLAMGMKREAVQEE	-0.227 ± 0.036
KHICAICQDRSSGKHYGVYSCEGCKGFFKRTVRKDLTYTCRDNKDCLIDKRQRNRCQYCRYQKCLAMGMKREAVQEE	0.043 ± 0.045
KHICAICRDRSSGKHYGVYSCEGCKGFFKRTVRKDLTYTCRDNKDCLIDKRQRNRCQYCRYQKCLAMGMKREAVQEE	-0.125 ± 0.033
KHICAICSDRSSGKHYGVYSCEGCKGFFKRTVRKDLTYTCRDNKDCLIDKRQRNRCQYCRYQKCLAMGMKREAVQEE	-0.041 ± 0.03
KHICAICTDRSSGKHYGVYSCEGCKGFFKRTVRKDLTYTCRDNKDCLIDKRQRNRCQYCRYQKCLAMGMKREAVQEE	0.016 ± 0.035
KHICAICVDRSSGKHYGVYSCEGCKGFFKRTVRKDLTYTCRDNKDCLIDKRQRNRCQYCRYQKCLAMGMKREAVQEE	-0.228 ± 0.034
KHICAICWDRSSGKHYGVYSCEGCKGFFKRTVRKDLTYTCRDNKDCLIDKRQRNRCQYCRYQKCLAMGMKREAVQEE	-0.1 ± 0.06
KHICAICYDRSSGKHYGVYSCEGCKGFFKRTVRKDLTYTCRDNKDCLIDKRQRNRCQYCRYQKCLAMGMKREAVQEE	-0.044 ± 0.043
KHICAICGARSSGKHYGVYSCEGCKGFFKRTVRKDLTYTCRDNKDCLIDKRQRNRCQYCRYQKCLAMGMKREAVQEE	-0.091 ± 0.037
KHICAICGCRSSGKHYGVYSCEGCKGFFKRTVRKDLTYTCRDNKDCLIDKRQRNRCQYCRYQKCLAMGMKREAVQEE	-0.898 ± 0.083
KHICAICGERSSGKHYGVYSCEGCKGFFKRTVRKDLTYTCRDNKDCLIDKRQRNRCQYCRYQKCLAMGMKREAVQEE	0.098 ± 0.055
KHICAICGFRSSGKHYGVYSCEGCKGFFKRTVRKDLTYTCRDNKDCLIDKRQRNRCQYCRYQKCLAMGMKREAVQEE	-0.321 ± 0.036
KHICAICGGRSSGKHYGVYSCEGCKGFFKRTVRKDLTYTCRDNKDCLIDKRQRNRCQYCRYQKCLAMGMKREAVQEE	-0.166 ± 0.039
KHICAICGHRSSGKHYGVYSCEGCKGFFKRTVRKDLTYTCRDNKDCLIDKRQRNRCQYCRYQKCLAMGMKREAVQEE	-0.214 ± 0.034
KHICAICGIRSSGKHYGVYSCEGCKGFFKRTVRKDLTYTCRDNKDCLIDKRQRNRCQYCRYQKCLAMGMKREAVQEE	-0.455 ± 0.04
KHICAICGKRSSGKHYGVYSCEGCKGFFKRTVRKDLTYTCRDNKDCLIDKRQRNRCQYCRYQKCLAMGMKREAVQEE	0.03 ± 0.044
KHICAICGLRSSGKHYGVYSCEGCKGFFKRTVRKDLTYTCRDNKDCLIDKRQRNRCQYCRYQKCLAMGMKREAVQEE	-0.708 ± 0.045
KHICAICGMRSSGKHYGVYSCEGCKGFFKRTVRKDLTYTCRDNKDCLIDKRQRNRCQYCRYQKCLAMGMKREAVQEE	-0.354 ± 0.051
KHICAICGNRSSGKHYGVYSCEGCKGFFKRTVRKDLTYTCRDNKDCLIDKRQRNRCQYCRYQKCLAMGMKREAVQEE	-0.05 ± 0.033
KHICAICGPRSSGKHYGVYSCEGCKGFFKRTVRKDLTYTCRDNKDCLIDKRQRNRCQYCRYQKCLAMGMKREAVQEE	-0.662 ± 0.054
KHICAICGQRSSGKHYGVYSCEGCKGFFKRTVRKDLTYTCRDNKDCLIDKRQRNRCQYCRYQKCLAMGMKREAVQEE	0.033 ± 0.045
KHICAICGRRSSGKHYGVYSCEGCKGFFKRTVRKDLTYTCRDNKDCLIDKRQRNRCQYCRYQKCLAMGMKREAVQEE	-0.243 ± 0.032
KHICAICGSRSSGKHYGVYSCEGCKGFFKRTVRKDLTYTCRDNKDCLIDKRQRNRCQYCRYQKCLAMGMKREAVQEE	-0.137 ± 0.028
KHICAICGTRSSGKHYGVYSCEGCKGFFKRTVRKDLTYTCRDNKDCLIDKRQRNRCQYCRYQKCLAMGMKREAVQEE	-0.089 ± 0.031

Variant	abundance fitness
KHICAICGVRSSGKHYGVYSCEGCKGFFKRTVRKDLTYTCRDNKDCLIDKRQRNRCQYCRYQKCLAMGMKREAVQEE	-0.424 ± 0.044
KHICAICGWRSSGKHYGVYSCEGCKGFFKRTVRKDLTYTCRDNKDCLIDKRQRNRCQYCRYQKCLAMGMKREAVQEE	-0.141 ± 0.054
KHICAICGDASSGKHYGVYSCEGCKGFFKRTVRKDLTYTCRDNKDCLIDKRQRNRCQYCRYQKCLAMGMKREAVQEE	-0.139 ± 0.028
KHICAICGDCSSGKHYGVYSCEGCKGFFKRTVRKDLTYTCRDNKDCLIDKRQRNRCQYCRYQKCLAMGMKREAVQEE	-0.053 ± 0.035
KHICAICGDDSSGKHYGVYSCEGCKGFFKRTVRKDLTYTCRDNKDCLIDKRQRNRCQYCRYQKCLAMGMKREAVQEE	-0.047 ± 0.034
KHICAICGDESSGKHYGVYSCEGCKGFFKRTVRKDLTYTCRDNKDCLIDKRQRNRCQYCRYQKCLAMGMKREAVQEE	-0.059 ± 0.034
KHICAICGDFSSGKHYGVYSCEGCKGFFKRTVRKDLTYTCRDNKDCLIDKRQRNRCQYCRYQKCLAMGMKREAVQEE	-0.064 ± 0.031
KHICAICGDGSSGKHYGVYSCEGCKGFFKRTVRKDLTYTCRDNKDCLIDKRQRNRCQYCRYQKCLAMGMKREAVQEE	-0.072 ± 0.026
KHICAICGDHSSGKHYGVYSCEGCKGFFKRTVRKDLTYTCRDNKDCLIDKRQRNRCQYCRYQKCLAMGMKREAVQEE	-0.051 ± 0.03
KHICAICGDISSGKHYGVYSCEGCKGFFKRTVRKDLTYTCRDNKDCLIDKRQRNRCQYCRYQKCLAMGMKREAVQEE	-0.021 ± 0.031
KHICAICGDKSSGKHYGVYSCEGCKGFFKRTVRKDLTYTCRDNKDCLIDKRQRNRCQYCRYQKCLAMGMKREAVQEE	-0.025 ± 0.033
KHICAICGDLSSGKHYGVYSCEGCKGFFKRTVRKDLTYTCRDNKDCLIDKRQRNRCQYCRYQKCLAMGMKREAVQEE	-0.131 ± 0.024
KHICAICGDMSSGKHYGVYSCEGCKGFFKRTVRKDLTYTCRDNKDCLIDKRQRNRCQYCRYQKCLAMGMKREAVQEE	-0.099 ± 0.034
KHICAICGDNSSGKHYGVYSCEGCKGFFKRTVRKDLTYTCRDNKDCLIDKRQRNRCQYCRYQKCLAMGMKREAVQEE	-0.024 ± 0.031
KHICAICGDSSSGKHYGVYSCEGCKGFFKRTVRKDLTYTCRDNKDCLIDKRQRNRCQYCRYQKCLAMGMKREAVQEE	-0.046 ± 0.025
KHICAICGDTSSGKHYGVYSCEGCKGFFKRTVRKDLTYTCRDNKDCLIDKRQRNRCQYCRYQKCLAMGMKREAVQEE	-0.024 ± 0.026
KHICAICGDVSSGKHYGVYSCEGCKGFFKRTVRKDLTYTCRDNKDCLIDKRQRNRCQYCRYQKCLAMGMKREAVQEE	-0.199 ± 0.028
KHICAICGDWSSGKHYGVYSCEGCKGFFKRTVRKDLTYTCRDNKDCLIDKRQRNRCQYCRYQKCLAMGMKREAVQEE	-0.044 ± 0.035
KHICAICGDYSSGKHYGVYSCEGCKGFFKRTVRKDLTYTCRDNKDCLIDKRQRNRCQYCRYQKCLAMGMKREAVQEE	-0.028 ± 0.029
KHICAICGDRASGKHYGVYSCEGCKGFFKRTVRKDLTYTCRDNKDCLIDKRQRNRCQYCRYQKCLAMGMKREAVQEE	-0.054 ± 0.029
KHICAICGDRCSGKHYGVYSCEGCKGFFKRTVRKDLTYTCRDNKDCLIDKRQRNRCQYCRYQKCLAMGMKREAVQEE	-0.015 ± 0.032
KHICAICGDRDSGKHYGVYSCEGCKGFFKRTVRKDLTYTCRDNKDCLIDKRQRNRCQYCRYQKCLAMGMKREAVQEE	-0.014 ± 0.036
KHICAICGDRESGKHYGVYSCEGCKGFFKRTVRKDLTYTCRDNKDCLIDKRQRNRCQYCRYQKCLAMGMKREAVQEE	-0.072 ± 0.035
